Experimental data as given in US20240101647A1 (published 2024).

Target: monomeric human Fc-fused SARS-CoV-2_RBD-SD1 (UniProt P0DTC2 319-591)
Assay: BLI

B1: VHH3.89 (VHH)
VHH: QVQLQESGGGLVQPGGSLRLSCAASGFTLDYYAIGWFREVPGKEREGLSRIDSSDGSTYYADSVKGRFTISRDNTKNIVYLQMNNLKPEDTAVYYCATDPIIQGRNWYWTGWGQGTQVTVSS
  koff: 0.0002 s⁻¹
